Experimental data reported in patent publication US20100035825A1 (University of California, published 2010).

B2: C/EBPβ-PThr^217 (mouse C/EBPβ phosphorylated on Thr217) (other)
chain: MHRLLAWDAACLPPPPAAFRPMEVANFYYEPDCLAYGAKAARAAPRAPAAEPAIGEHERAIDFSPYLEPLAPAADFAAPAPAHHDFLSDLFADDYGAKPSKKPADYGYVSLGRAGAKAAPPACFPPPPPAALKAEPGFEPADCKRADDAPAMAAGFPFALRAYLGYQATPSGSSGSLSTSSSSSPPGTPSPADAKAAPAACFAGPPAAPAKAKAKKTVDKLSDEYKMRRERNNIAVRKSRDKAKMRNLETQHKVLELTAENERLQKKVEQLSRELSTLRNLFKQLPEPLLASAGHC
modifications: phosphothreonine at 217
notes: Endogenous, phosphorylated in stellate cells after CCl4 or on collagen type I
B3: purified recombinant procaspase 8 (human, Alexis Biochemicals) (enzyme, UniProt Q14790 217-479, looked up)
chain: SESQTLDKVYQMKSKPRGYCLIINNHNFAKAREKVPKLHSIRDRNGTHLDAGALTTTFEELHFEIKPHDDCTVEQIYEILKIYQLMDHSNMDCFICCILSHGDKGIIYGTDGQEAPIYELTSQFTGLKCPSLAGKPKVFFIQACQGDNYQKGIPVETDSEEQPYLEMDLSSPQTRYIPDEADFLLGMATVNNCVSYRNPAEGTWYIQSLCQSLRERCPRGDDILTILTEVNYEVSNKDDKKNMGKQMPQPTFTLRKKLVFPSD
notes: also called recombinant caspase 8; procaspases 8; not shown: 21 amino acid linker at the N-terminus from the expression vector

Assays:
[1] = target: T1, procaspase 1 (endogenous, mouse hepatic stellate cells) (mouse, UniProt P29452 1-402); experiment: anti-HA co-immunoprecipitation and immunoblot, transfected activated stellate cells
T1 construct: also called procaspases 1
T1 sequence (looked up): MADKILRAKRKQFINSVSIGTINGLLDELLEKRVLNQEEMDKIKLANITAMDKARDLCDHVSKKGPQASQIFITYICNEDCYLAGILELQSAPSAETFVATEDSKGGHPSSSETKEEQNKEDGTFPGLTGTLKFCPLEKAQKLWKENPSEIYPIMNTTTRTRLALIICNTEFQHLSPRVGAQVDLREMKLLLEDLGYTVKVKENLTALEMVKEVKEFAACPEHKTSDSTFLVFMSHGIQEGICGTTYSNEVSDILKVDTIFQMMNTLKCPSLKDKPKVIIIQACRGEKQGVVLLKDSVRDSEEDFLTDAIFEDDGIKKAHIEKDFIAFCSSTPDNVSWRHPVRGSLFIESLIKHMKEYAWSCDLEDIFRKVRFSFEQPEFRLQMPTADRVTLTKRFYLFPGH

[2] = target: T2, procaspase 8 (endogenous, mouse hepatic stellate cells) (mouse, UniProt O89110 1-480); experiment: as above
T2 construct: also called procaspases 8
T2 sequence (looked up): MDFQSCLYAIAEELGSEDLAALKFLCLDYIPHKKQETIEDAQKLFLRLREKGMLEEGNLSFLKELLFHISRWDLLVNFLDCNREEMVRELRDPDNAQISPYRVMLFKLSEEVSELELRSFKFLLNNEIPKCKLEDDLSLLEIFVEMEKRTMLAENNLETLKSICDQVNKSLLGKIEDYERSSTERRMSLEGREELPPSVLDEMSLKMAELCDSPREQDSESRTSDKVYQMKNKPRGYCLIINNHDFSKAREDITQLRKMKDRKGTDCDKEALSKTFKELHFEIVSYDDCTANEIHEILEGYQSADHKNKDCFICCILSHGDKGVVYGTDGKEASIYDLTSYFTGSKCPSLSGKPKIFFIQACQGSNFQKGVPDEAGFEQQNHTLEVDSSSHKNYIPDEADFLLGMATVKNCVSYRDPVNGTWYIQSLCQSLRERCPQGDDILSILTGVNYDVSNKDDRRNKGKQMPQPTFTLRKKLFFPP

[3] = target: B3; experiment: co-immunoprecipitation of purified recombinant proteins (C/EBPβ peptides 200 µM), immunoblot, densitometry; reference C/EBPβ-HA-Ala217
[4] = target: T3, procaspase 7 (endogenous, mouse hepatic stellate cells) (mouse, UniProt P97864 1-303); experiment: C/EBPβ immunoprecipitation and immunoblot, stellate cells of CCl4-treated C/EBPβ+/+ mice
T3 construct: also called effector procaspase 7
T3 sequence (looked up): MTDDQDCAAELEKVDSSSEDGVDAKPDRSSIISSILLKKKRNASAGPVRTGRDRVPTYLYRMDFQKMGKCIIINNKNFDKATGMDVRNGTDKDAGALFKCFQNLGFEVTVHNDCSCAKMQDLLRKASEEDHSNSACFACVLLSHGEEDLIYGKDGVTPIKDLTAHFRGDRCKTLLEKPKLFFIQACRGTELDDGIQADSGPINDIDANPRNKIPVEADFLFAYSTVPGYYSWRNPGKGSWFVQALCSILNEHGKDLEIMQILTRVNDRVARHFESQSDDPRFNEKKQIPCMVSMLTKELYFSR

[5] = target: T4, procaspase 9 (endogenous, mouse hepatic stellate cells) (mouse, UniProt Q8C3Q9 1-454); experiment: as above
T4 construct: also called effector procaspase 9
T4 sequence (looked up): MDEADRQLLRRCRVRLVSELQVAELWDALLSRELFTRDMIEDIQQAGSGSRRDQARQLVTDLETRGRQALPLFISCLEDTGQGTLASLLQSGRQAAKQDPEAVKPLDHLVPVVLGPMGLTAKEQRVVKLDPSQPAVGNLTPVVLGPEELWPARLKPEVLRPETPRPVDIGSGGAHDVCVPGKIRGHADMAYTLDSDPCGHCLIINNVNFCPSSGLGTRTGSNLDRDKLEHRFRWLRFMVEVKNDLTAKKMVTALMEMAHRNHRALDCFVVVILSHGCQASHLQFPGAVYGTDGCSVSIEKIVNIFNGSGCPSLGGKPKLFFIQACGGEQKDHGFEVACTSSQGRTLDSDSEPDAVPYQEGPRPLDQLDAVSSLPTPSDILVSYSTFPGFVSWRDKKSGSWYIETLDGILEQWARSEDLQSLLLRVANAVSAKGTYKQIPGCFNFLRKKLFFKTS

[6] = target: T5, C/EBPβ-HA-Ala^217 (mouse, UniProt P28033 1-296, limits assumed); experiment: co-immunoprecipitation of purified recombinant proteins
T5 construct: not shown: HA (hemagglutinin) tag
T5 sequence: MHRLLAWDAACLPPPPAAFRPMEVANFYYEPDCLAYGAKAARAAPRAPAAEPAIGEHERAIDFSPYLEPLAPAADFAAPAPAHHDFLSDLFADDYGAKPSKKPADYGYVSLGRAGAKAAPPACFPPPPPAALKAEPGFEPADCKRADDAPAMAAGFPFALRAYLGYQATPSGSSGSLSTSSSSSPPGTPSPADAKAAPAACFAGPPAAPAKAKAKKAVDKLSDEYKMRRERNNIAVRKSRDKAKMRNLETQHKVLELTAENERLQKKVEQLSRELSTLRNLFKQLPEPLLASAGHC

[7] = target: B2; experiment: C/EBPβ immunoprecipitation and immunoblot, stellate cells of CCl4-treated C/EBPβ+/+ mice

B1: C/EBPβ-HA-Glu^217 (other, not shown: small tags and cut ends)
chain: MHRLLAWDAACLPPPPAAFRPMEVANFYYEPDCLAYGAKAARAAPRAPAAEPAIGEHERAIDFSPYLEPLAPAADFAAPAPAHHDFLSDLFADDYGAKPSKKPADYGYVSLGRAGAKAAPPACFPPPPPAALKAEPGFEPADCKRADDAPAMAAGFPFALRAYLGYQATPSGSSGSLSTSSSSSPPGTPSPADAKAAPAACFAGPPAAPAKAKAKKEVDKLSDEYKMRRERNNIAVRKSRDKAKMRNLETQHKVLELTAENERLQKKVEQLSRELSTLRNLFKQLPEPLLASAGHC
**Q.** Does B1 bind [1]?
**A.** binds

**Q.** Does B1 bind [2]?
**A.** binds

**Q.** What about the “fold more co-immunoprecipitated than the Ala^217 peptides (densitometry)” value [3] of the same binder?
**A.** 12 fold

**Q.** Does B2 bind [4]?
**A.** no binding

**Q.** Does B2 bind [5]?
**A.** no binding

**Q.** Does B3 bind [6]?
**A.** no binding

B4: procaspase 3 (endogenous, mouse hepatic stellate cells) (enzyme, UniProt P70677 1-277, looked up)
chain: MENNKTSVDSKSINNFEVKTIHGSKSVDSGIYLDSSYKMDYPEMGICIIINNKNFHKSTGMSSRSGTDVDAANLRETFMGLKYQVRNKNDLTREDILELMDSVSKEDHSKRSSFVCVILSHGDEGVIYGTNGPVELKKLTSFFRGDYCRSLTGKPKLFIIQACRGTELDCGIETDSGTDEEMACQKIPVEADFLYAYSTAPGYYSWRNSKDGSWFIQSLCSMLKLYAHKLEFMHILTRVNRKVATEFESFSLDSTFHAKKQIPCIVSMLTKELYFYH
notes: also called effector procaspase 3
**Q.** Does B4 bind [7]?
**A.** no binding
